Experimental findings from PMC12251106, “An Organic Solvent-Tolerant α-L-Rhamnosidase from Dictyoglomus thermophilum and Its Application in Production of Icariside I from Icariin” (Molecules, 2025) are described below.

Substrate in the data set: C[C@@H]1O[C@@H](Oc2ccc([N+](=O)[O-])cc2)[C@H](O)[C@H](O)[C@H]1O
Kind of data set: purified protein. It counts as biochemical, Dictyoglomus thermophilum. Particulars: 100 mM NaAc-HAc pH 6.0, 55 °C, 0.1-5 mM pNPR, 0.2 mg/mL enzyme, apparent parameters.

B1: DthRha (Dictyoglomus thermophilum H-6-12) (protein)
chain: MKSSNIYSPFDLKCEFTTNPLGVDKKNPIFSWKLRHLEKNEKQTAYQVIVSSSLETINDNIGDVWDTGKVLSSEQVIKYEGKELEPCKVYFWKVRWWDSKDQESPFSVVNTFETGLMNEENWKAKWITKKEHKYEVYSPDGAPFGLNYTIAYAPMFRKSFSISKKIKRARVYIAGLGLYELYINGERIGDRVLDPGQTDYKKRVLYTVYDVSKNIRDGKNAIGVILGNGRYVKEYGYDFPKLIIQVLVEYEDDSIEWIVSDESWKTTYGPITLNSLYHGEIYDGRKEIKGWNLPDFDDSTWENAILAEPPGGKLYSEIYPPIRITKTIKPIKMWSPEPGTYVYDFGQNYTGWIKIKVRTNESGKEIRIRHAELTYEDGTLNYSTNRTALATDVYITKGEGYEEYEPRFTYHGFRYVEILGYPGVPTLEDIEGKVVHTAVESNGEFICSNELINKIHHNIIWGQLSNLMSIPTDCPQRDERMGWMGDAQLSAEEAIFNFDMIGFYRKYLNDIRDAQKENGSLSDVIPPYWSIYPGDPAWSTAYITIAWYLYQYYGDKYVLEEHYEGFKKYVEFLKKLAPDYIVSFYKYGDWCQPGTVRPKDNSGELTSTFYFYHDVITLSKIAKLLGKEADYKYYSELADKIKSAFNKKFLKEKAYASIPTELSEENVKALLEKYPEDIKDFLRQQFTILSSLGMFTSQTLNTLPLYLNLVPEDKVQDVLKTLLEDIIIRHDYHLDTGIVATRYIFDVLTSYGYDEVAYKIVNQKTYPSFGYMIEEGATTLWERWEKLTSTGMNSHNHIMFGSVDAWFYRVIAGVRVGEPGWNKIIFEPHPVGDLKYAKARLNTIKGEVEINWQKTENIFSMRISVPVNSEGEVHVPKLFERFVVKEGDNIIYEKKGDLEENEKYIVIRVGSGSYNFYMEKI
notes: 921 residues (2763 bp gene); theoretical 106 kDa, about 105 kDa on SDS-PAGE
As to B1, the Michaelis-Menten constant (Km) – broadly, the substrate concentration at which the rate is half of its maximum – stood at 440 µM; the catalytic constant (kcat) – broadly, the number of substrate molecules converted per active site and unit of time at saturation – is 7.99 s⁻¹; the kcat/Km – broadly, the turnover number divided by the Michaelis constant – is 18200 M⁻¹ s⁻¹.
